The target in assay [1] is T1, NMI-flag overexpressed protein (293T cells transfected with the hNMI-flag plasmid) (human) (UniProt Q13287).
T1 sequence (looked up): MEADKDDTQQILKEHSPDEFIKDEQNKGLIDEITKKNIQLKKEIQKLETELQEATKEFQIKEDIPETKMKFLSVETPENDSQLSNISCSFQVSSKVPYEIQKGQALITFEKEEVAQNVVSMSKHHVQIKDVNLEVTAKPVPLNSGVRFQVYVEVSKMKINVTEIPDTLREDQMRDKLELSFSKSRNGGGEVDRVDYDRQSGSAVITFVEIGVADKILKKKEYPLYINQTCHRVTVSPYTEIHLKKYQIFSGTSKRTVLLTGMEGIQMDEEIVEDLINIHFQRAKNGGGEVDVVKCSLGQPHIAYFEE
Nature of the assay: sandwich ELISA; detection 94C4-1-biotin; cell lysates of NMI-flag 293T, replicate 2. (In general: An ELISA detects its analyte on a solid surface through an enzyme-linked reagent.)

For assay [2], the target named is T2, human NMI (N-myc Interacting protein), recombinant protein (human, UniProt Q13287 1-307, limits assumed).
T2 construct: Gene ID: 9111; also called hNMI; antigen
T2 sequence (looked up): T1 sequence (looked up)
Kind of assay: sandwich ELISA; detection 39B4-1-biotin; hNMI 3.704 ng/mL.

Assay [3] addresses T2, human NMI (N-myc Interacting protein), …. Nature of the assay: sandwich ELISA; detection 39B4-1-biotin; hNMI 100.000 ng/mL.
Assay [4] shares this target. Kind of assay: sandwich ELISA; detection 39B4-1-biotin; hNMI 11.111 ng/mL.
For assay [5], the target named is T1, NMI-flag overexpressed protein (293T cells transfected with the hNMI-flag plasmid) (human). Kind of assay: sandwich ELISA; detection 94C4-1-biotin; cell supernatant of NMI-flag 293T, replicate 2.
Assay [6] deals with T2, human NMI (N-myc Interacting protein), …. Nature of the assay: sandwich ELISA; detection 94C4-1-biotin 0.5µg/mL; hNMI 12,500.000 pg/mL.
Assay [7] has the same target. Nature of the assay: sandwich ELISA; detection 94C4-1-biotin 1µg/mL; hNMI 390.625 pg/mL.
Assay [8] shares this target. Kind of assay: sandwich ELISA; detection 98G10-1-biotin; hNMI 11.111 ng/mL.
Assay [9] has the same target. Nature of the assay: sandwich ELISA; detection 94C4-1-biotin 0.5µg/mL; hNMI 97.656 pg/mL.
For assay [10] the target is unchanged. Kind of assay: sandwich ELISA; detection 94C4-1-biotin 1µg/mL; hNMI 50,000.000 pg/mL.
Assay [11] addresses T3, natural NMI in joint fluid of an arthritic patient (human) (UniProt Q13287).
T3 sequence (looked up): T1 sequence (looked up)
Nature of the assay: sandwich ELISA; detection 94C4-1-biotin 0.5µg/mL; joint fluid stock solution.

The target in assay [12] is T2, human NMI (N-myc Interacting protein), …. Kind of assay: sandwich ELISA; detection 39B4-1-biotin; hNMI 33.333 ng/mL.
The target is the same in assay [13]. Kind of assay: indirect ELISA, coated hNMI.
Assay [14] concerns the target T4, human NMI (N-myc Interacting protein) (human) (UniProt Q13287).
T4 sequence (looked up): T1 sequence (looked up)
Nature of the assay: magnetic-bead chemiluminescent sandwich, kit of Example 8-1; capture 98G10 beads, detection acridinium-B-8; series 1, hNMI 14000 pg/mL.

The target of assay [15] is T4, human NMI (N-myc Interacting protein) (human). Nature of the assay: magnetic-bead chemiluminescent sandwich; capture 98G10 beads (1.0 mg 98G10), detection acridinium-B-8; hNMI 400 pg/ml.
Assay [16] shares this target. Nature of the assay: magnetic-bead chemiluminescent sandwich, kit of Example 8-1; capture 98G10 beads, detection acridinium-B-8; series 2, hNMI 3600 pg/mL.
For assay [17] the target is unchanged. Nature of the assay: magnetic-bead chemiluminescent sandwich; capture 98G10 beads (0.5 mg 98G10), detection acridinium-B-8; hNMI 400 pg/ml.
The target is the same in assay [18]. Kind of assay: magnetic-bead chemiluminescent sandwich; capture 98G10 beads (1.0 mg 98G10), detection acridinium-B-8; hNMI 2000 pg/ml.
For assay [19] the target is unchanged. Kind of assay: magnetic-bead chemiluminescent sandwich, kit of Example 8-1; capture 98G10 beads, detection acridinium-B-8; series 1, hNMI 6000 pg/mL.
Assay [20] has the same target. Kind of assay: magnetic-bead chemiluminescent sandwich; capture 98G10 beads (1.0 mg 98G10), detection acridinium-B-8; hNMI 50 pg/ml.
For assay [21] the target is unchanged. Nature of the assay: magnetic-bead chemiluminescent sandwich; capture 98G10 beads, detection acridinium-B-8 (2.0 mg B-8 labelled); hNMI 400 pg/mL.
The target is the same in assay [22]. Kind of assay: magnetic-bead chemiluminescent sandwich; capture 98G10 beads, detection acridinium-B-8 (1.0 mg B-8 labelled); hNMI 1000 pg/mL.
For assay [23] the target is unchanged. Nature of the assay: magnetic-bead chemiluminescent sandwich, kit of Example 8-1; capture 98G10 beads, detection acridinium-B-8; series 2, hNMI 900 pg/mL.
Assay [24] has the same target. Nature of the assay: magnetic-bead chemiluminescent sandwich; capture 98G10 beads, detection acridinium-B-8 (1.0 mg B-8 labelled); hNMI 100 pg/mL.

B1: monoclonal antibody B-8 (antibody, V domains shown)
VH: QSLEESGGDLVKPGASLTLTCTASGFSFSSSYYMCWVRQAPGKGLEWIACIYAGSSGSTYYASWAKGRFTISKTSSTTVTLQMTSLTAADTATYFCAREYSYDDYGDFWGFNLWGPGTLVTVSS
VL: ALVMTQTPSSVSAAVGGTVTINCQASQNIYTNLAWYQQKPGQPPKLLIYGASNLESGVPSRFKGSGSGTEYTLTISDLECDDAATYYCQSSLYSRIADRANAFGGGTEVVVK
notes: Rabbit monoclonal antibody; also called B8-1
The EC50 is the concentration giving half of the maximal effect. With B1, the OD450 worked out at 2.9 OD450 in [1]; 0.563 OD450 in [2]; 3.07 OD450 in assay [3]; 1.25 OD450 in [4]; 0.95 OD450 in assay [5]; 2.03 OD450 in assay [6]. In addition, the OD450 in assay [7] was found to be 0.206 OD450; in assay [8] it was 1.38 OD450; in assay [9], 0.113 OD450; in assay [10], 3.11 OD450; in assay [11], 0.221 OD450; in assay [12] it was 2.43 OD450. The 50% effective concentration (EC50) in assay [13] turned out to be 0.0444 µg/mL.

B2: acridinium ester-labeled monoclonal antibody B-8 (antibody, V domains shown)
VH: B1 VH
VL: B1 VL
modifications: acridinium ester label on the antibody, site not stated
On to B2, for which the Signal value in assay [14] is 1.05e+06; in [15] it was 86800; in assay [16], 408000; in [17] it was 39900; in assay [18], 397000; in assay [19] it was 414000. The Signal value in assay [20] was determined as 11100; in assay [21] it was 44600; in assay [22] it was 97600; in assay [23] it was 98500; in assay [24], 9490.

B3: monoclonal antibody 240B10-1 (antibody, V domains shown)
VH: QSLEESGGRLVTPGGSLTLTCTVSGIDLSSYTMGWVRQAPGKGLEYIGIISGGGRTYYASWAKGRFTISKTSSTTVDLKVTSLTTEDTATYFCARIYTLWGQGTLVTVSS
VL: QVLTQTLASVSAAVGGTVTINCQSSQSVYNNDYLAWFQQKSGQPPKQLIHSASKLASGVPSRFKGSGSGTQFTLTINDVQCDDAATYYCLGGYDCYSADCNVFGGGTEVVVK
notes: Rabbit monoclonal antibody
For the molecule B3, the OD450 in assay [2] is 0.785 OD450; in [3], 3.12 OD450; in assay [4] it was 1.71 OD450; in [6], 2.32 OD450; in assay [7], 0.255 OD450; in assay [8] it was 1.7 OD450. The results for the OD450 in [9], in [10] and in assay [12] were 0.146 OD450, 3.1 OD450 and 2.67 OD450, respectively. Further, the EC50 in assay [13] was 0.0477 µg/mL.

The values above are taken from patent publication EP4682166A1 (Guangzhou Enmai Biotechnology Co., Ltd, dated 2026).
